As a reminder, the Kd is a measure of binding affinity in units of concentration. What is called EC50 (read off the curve) is the concentration that produces a half-maximal response.

Seven molecules from patent publication US20240091321A1 (AMICUS THERAPEUTICS, published 2024) can be followed below.

For assay [1], the target named is T1, CI-MPR receptor.
T1 construct: also called IGF2/CI-MPR; IGF2/Mannose-6-phosphate receptor
Description: CIMPR plate binding assay, bound NAGLU activity (4MU released).

In assay [2] the target is T1, CI-MPR receptor. Description: CI-MPR plate-binding assay in presence of M6P, bound PPT1 by activity assay. As to the method: (§1) In the binding assay, a plate was first coated with CI-MPR. Next, a sample containing the enzyme of interest was incubated on the plate. The plate was washed so that only substances bound to CI-MPR remain on the plate. The amount of the enzyme of interest bound to the plate was determined by enzyme assay or by mass spec. The binding assay was performed at a range of concentrations of the enzyme of interest in order to obtain a binding curve.
CI-MPR plate-binding assay performed as previously described, then amount bound was determined by PPT1 activity assay.

Assay [3] concerns the target T1, CI-MPR receptor. Kind of assay: CIMPR binding assay, PPT1 conditioned media, curves starting at 25 nM, bound PPT1 activity; the table prints no units, units of the axes.
Assay [4] addresses T1, CI-MPR receptor. Kind of assay: CIMPR binding assay, PPT1 conditioned media, dilution starting at 50 nM, bound PPT1 activity; the table prints no units, units of the axes.
For assay [5], the target named is T1, CI-MPR receptor. Description: CI-MPR-coated plate binding assay, conditioned media of HEK 293 cells, bound TPP1 activity. The procedure:
as §1

B1: WT NAGLU (enzyme)
enzyme: DEAREAAAVRALVARLLGPGPAADFSVSVERALAAKPGLDTYSLGGGGAARVRVRGSTGVAAAAGLHRYLRDFCGCHVAWSGSQLRLPRPLPAVPGELTEATPNRYRYYQNVCTQSYSFVWWDWARWEREIDWMALNGINLALAWSGQEAIWQRVYLALGLTQAEINEFFTGPAFLAWGRMGNLHTWDGPLPPSWHIKQLYLQHRVLDQMRSFGMTPVLPAFAGHVPEAVTRVFPQVNVTKMGSWGHFNCSYSCSFLLAPEDPIFPIIGSLFLRELIKEFGTDHIYGADTFNEMQPPSSEPSYLAAATTAVYEAMTAVDTEAVWLLQGWLFQHQPQFWGPAQIRAVLGAVPRGRLLVLDLFAESQPVYTRTASFQGQPFIWCMLHNFGGNHGLFGALEAVNGGPEAARLFPNSTMVGTGMAPEGISQNEVVYSLMAELGWRKDPVPDLAAWVTSFAARRYGVSHPDAGAAWRLLLRSVYNCSGEACRGHNRSPLVRRPSLQMNTSIWYNRSDVFEAWRLLLTSAPSLATSPAFRYDLLDLTRQAVQELVSLYYEEARSAYLSKELASLLRAGGVLAYELLPALDEVLASDSRFLLGSWLEQARAAAVSEAEADFYEQNSRYQLTLWGPEGNILDYANKQLAGLVANYYTPRWRLFLEALVDSVAQGIPFQQHQFDKNVFQLEQAFVLSKQRYPSQPRGDTVDLAKKIFLKYYPRWVAGSW
notes: also called untagged NAGLU
Take B1: in assay [1], the Kd was determined as 325 nM.

B2: PPT1-29 (BiP2aa-vIGF2-PPT1) (enzyme)
chain: MKLSLVAAMLLLLWVALLLLSAARAAASRTLCGGELVDTLQFVCGDRGFLFSRPASRVSRRSRGIVEECCFRSCDLALLETYCATPARSEGGGGSGGGGSRPRAVPTQDPPAPLPLVIWHGMGDSCCNPLSMGAIKKMVEKKIPGIYVLSLEIGKTLMEDVENSFFLNVNSQVTTVCQALAKDPKLQQGYNAMGFSQGGQFLRAVAQRCPSPPMINLISVGGQHQGVFGLPRCPGESSHICDFIRKTLNAGAYSKVVQERLVQAEYWHDPIKEDVYRNHSIFLADINQERGINESYKKNLMALKKFVMVKFLNDSIVDPVDSEWFGFYRSGQAKETIPLQETSLYTQDRLGLKEMDNAGQLVFLATEGDHLQLSEEWFYAHIIPFLG
notes: Whole entry; it includes the modified BiP signal peptide
As for B2, in assay [2], the Bmax was 8.98 and the “Relative Kd” value was found to be 0.107.

B3: PPT1-101 (enzyme)
fusion protein: MKLSLVAAMLLLLWVALLLLSAARAAASRTLCGGELVDTLQFVCGDRGFLFSRGGGGSRGILEECCFRDCDLALLETYCATPARSEGGGGSGGGGSRPRAVPTQDPPAPLPLVIWHGMGDSCCNPLSMGAIKKMVEKKIPGIYVLSLEIGKTLMEDVENSFFLNVNSQVTTVCQALAKDPKLQQGYNAMGFSQGGQFLRAVAQRCPSPPMINLISVGGQHQGVFGLPRCPGESSHICDFIRKTLNAGAYSKVVQERLVQAEYWHDPIKEDVYRNHSIFLADINQERGINESYKKNLMALKKFVMVKFLNDSIVDPVDSEWFGFYRSGQAKETIPLQETSLYTQDRLGLKEMDNAGQLVFLATEGDHLQLSEEWFYAHIIPFLG
Consider B3, for which the Kd was 4.57 nM in assay [3] and 4.12 nM in assay [4].

B4: PPT1-33 (wt-PPT1-vIGF2-8Q) (enzyme)
chain: DPPAPLPLVIWHGMGDSCCNPLSMGAIKKMVEKKIPGIYVLSLEIGKTLMEDVENSFFLNVNSQVTTVCQALAKDPKLQQGYNAMGFSQGGQFLRAVAQRCPSPPMINLISVGGQHQGVFGLPRCPGESSHICDFIRKTLNAGAYSKVVQERLVQAEYWHDPIKEDVYRNHSIFLADINQERGINESYKKNLMALKKFVMVKFLNDSIVDPVDSEWFGFYRSGQAKETIPLQETSLYTQDRLGLKEMDNAGQLVFLATEGDHLQLSEEWFYAHIIPFLGRPRAVPTQGGSGSGSTSSSRTLCGGELVDTLQFVCGDRGFLFSRPASRVSRRSRGIVEECCFRECDLALLETYCATPARSE
notes: Whole entry; it includes the native PPT1 signal peptide
Consider B4, for which, in assay [2], the Bmax amounted to 9.19 and the “Relative Kd” value is 0.143.

B5: Natural hTTP1 (enzyme)
enzyme: SYSPEPDQRRTLPPGWVSLGRADPEEELSLTFALRQQNVERLSELVQAVSDPSSPQYGKYLTLENVADLVRPSPLTLHTVQKWLLAAGAQKCHSVITQDFLTCWLSIRQAELLLPGAEFHHYVGGPTETHVVRSPHPYQLPQALAPHVDFVGGLHRFPPTSSLRQRPEPQVTGTVGLHLGVTPSVIRKRYNLTSQDVGSGTSNNSQACAQFLEQYFHDSDLAQFMRLFGGNFAHQASVARVVGQQGRGRAGIEASLDVQYLMSAGANISTWVYSSPGRHEGQEPFLQWLMLLSNESALPHVHTVSYGDDEDSLSSAYIQRVNTELMKAAARGLTLLFASGDSGAGCWSVSGRHQFRPTFPASSPYVTTVGGTSFQEPFLITNEIVDYISGGGFSNVFPRPSYQEEAVTKFLSSSPHLPPSSYFNASGRAYPDVAALSDGYWVVSNRVPIPWVSGTSASTPVFGGILSLINEHRILSGRPPLGFLNPRLYQQHGAGLFDVTRGCHESCLDEEVEGQGFCSGPGWDPVTGWGTPNFPALLKTLLNP
notes: also called WT TPP1; TPP1 wildtype
Consider B5, for which, in assay [5], the half-maximal effective concentration (EC50 (read off the curve)) is around 0.4 nM.

B6: PPT1-104 (enzyme)
fusion protein: DPPAPLPLVIWHGMGDSCCNPLSMGAIKKMVEKKIPGIYVLSLEIGKTLMEDVENSFFLNVNSQVTTVCQALAKDPKLQQGYNAMGFSQGGQFLRAVAQRCPSPPMINLISVGGQHQGVFGLPRCPGESSHICDFIRKTLNAGAYSKVVQERLVQAEYWHDPIKEDVYRNHSIFLADINQERGINESYKKNLMALKKFVMVKFLNDSIVDPVDSEWFGFYRSGQAKETIPLQETSLYTQDRLGLKEMDNAGQLVFLATEGDHLQLSEEWFYAHIIPFLGRPRAVPTQGGSGSGSTSSSRTLCGGELVDTLQFVCGDRGFLFSRGGGGSRGILEECCFRECDLALLETYCATPARSE
B6: the dissociation constant Kd in assay [3] was 3.87 nM; in assay [4] it was 3.41 nM.

B7: PPT1-32 (wt-PPT1-vIGF2-32) (enzyme)
chain: DPPAPLPLVIWHGMGDSCCNPLSMGAIKKMVEKKIPGIYVLSLEIGKTLMEDVENSFFLNVNSQVTTVCQALAKDPKLQQGYNAMGFSQGGQFLRAVAQRCPSPPMINLISVGGQHQGVFGLPRCPGESSHICDFIRKTLNAGAYSKVVQERLVQAEYWHDPIKEDVYRNHSIFLADINQERGINESYKKNLMALKKFVMVKFLNDSIVDPVDSEWFGFYRSGQAKETIPLQETSLYTQDRLGLKEMDNAGQLVFLATEGDHLQLSEEWFYAHIIPFLGRPRAVPTQGGSGSGSTSSSRTLCGGELVDTLQFVCGDRGFLFSRGGGGSRGILEECCFRECDLALLETYCATPARSE
notes: as for B4
Take B7: in assay [2], the Bmax is 6.05 and the “Relative Kd” value is 0.121.
